For the series, the target named is M.MpeI (called wild type) (Mycoplasma penetrans? (printed "M. …, UniProt Q8EVR5 1-395, Q68R;K71R;S295P)). Description: EMSA; 80 uM SAM, 1 mM DTT, 10 mM MgCl2; non-covalent complex among the most abundant; EMSA: 10 mM Tris-HCl pH 7.9, 50 mM NaCl, 10 mM MgCl2, 1 mM DTT, 80 uM SAM, 37 C 1 h, 1 uM DNA, 0.5-4 uM protein; covalent SDS-PAGE: 10 mM Tris-HCl pH 7.9, 50 mM NaCl, 160 uM SAM or sinefungin, +/-10 mM DTT, 37 C. To be noted: protein: recombinant; tags: C-terminal LEHHHHHH; label: 5' Cy3 or 5' 32P on strand 2; blunt.

B1: 30-dhaC / 30-5mC-down (dsDNA)
DNA 1: CAGCATTATCACAGCGTTTACACAATAACC
DNA 2: GGTTATTGTGTAAACGCTGTGATAATGCTG
modifications: 5,6-dihydro-5-azacytosine at position 15 of strand 1 (written C); 5mC at position 15 of strand 2
For B1, the binding result was “binds”.

B2: 30-5mZ / 30-5mC-down (dsDNA)
DNA 1: B1 DNA 1
DNA 2: B1 DNA 2
modifications: 5-methyl-2-pyrimidinone (5-methylzebularine) at position 15 of strand 1 (written C); 5mC at position 15 of strand 2
As to B2, the binding result is “binds”.
